The assay addresses T1, His-p53 (UniProt P04637 1-393).
T1 construct: p53; also called Purified p53; source: purified
Description: pull-down; GST-TRIM26 fragments on beads, incubated with His-p53 or His-MDM2 at RT for 40 min; bound protein detected by Western blot with His antibody. Conditions: both partners purified.

Experimental findings from article PMC12162846, “Tripartite motif-containing protein 26 promotes colorectal cancer growth by inactivating p53” (Cell Death and Differentiation, 2025) are described below.

T1 sequence (P04637 whole entry): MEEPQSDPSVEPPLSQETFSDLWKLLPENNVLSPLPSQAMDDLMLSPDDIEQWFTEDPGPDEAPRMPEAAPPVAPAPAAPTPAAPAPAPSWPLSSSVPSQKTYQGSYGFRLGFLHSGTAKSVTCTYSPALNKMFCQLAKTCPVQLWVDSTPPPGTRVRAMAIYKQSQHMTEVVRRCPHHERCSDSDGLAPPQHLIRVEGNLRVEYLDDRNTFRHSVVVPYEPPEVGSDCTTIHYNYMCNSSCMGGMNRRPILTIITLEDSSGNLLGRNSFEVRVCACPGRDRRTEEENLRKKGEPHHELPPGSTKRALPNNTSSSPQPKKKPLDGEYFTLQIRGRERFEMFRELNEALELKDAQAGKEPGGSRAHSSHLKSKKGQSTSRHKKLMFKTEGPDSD

B1: GST-TRIM26 C-terminal PRYSPRY domain (aa301-539) (domain or fragment, UniProt Q12899 301-539, looked up)
chain: QGKLLRDLEYKTVSVTLDPQSASGYLQLSEDWKCVTYTSLYKSAYLHPQQFDCEPGVLGSKGFTWGKVYWEVEVEREGWSEDEEEGDEEEEGEEEEEEEEAGYGDGYDDWETDEDEESLGDEEEEEEEEEEEVLESCMVGVARDSVKRKGDLSLRPEDGVWALRLSSSGIWANTSPEAELFPALRPRRVGIALDYEGGTVTFTNAESQELIYTFTATFTRRLVPFLWLKWPGTRLLLRP
notes: also called the C-terminal domain of TRIM26; source: purified GST-fusion protein on beads
In the case of B1, the binding result is “binds”.
